This note sets out measurements from US8551717B2, “Method for determining sumoylation” (Medizinische Hochschule Hannover, priority 2008, dated 2013).

Holding throughout (assay type): cell-based
The target in assay [1] is T1, CSNK2B-U (Homo sapiens, UniProt P63279+P67870).
T1 construct: expressed in transfected cells; host or cells: HEK293
In words: Trans-SUMOylation by CSNK2B-U. The settings on record: protein 2 construct coexpressed with CSNK2B-U and EGFP-SUMO1 in HEK293, Table 1.

Assay [2] concerns the target T2, JUN-U (Homo sapiens, UniProt P05412+P63279).
T2 construct: expressed in transfected cells; host or cells: HEK293
In words: Trans-SUMOylation by JUN-U. The note with it: protein 2 construct coexpressed with JUN-U and EGFP-SUMO1 in HEK293, western blot. A general note: In western blotting, separated proteins are transferred to a membrane and probed.

Assay [3] concerns the target T3, U-p38α (Homo sapiens, UniProt P63279+Q16539).
T3 construct: expressed in transfected cells; host or cells: HEK293
Briefly: Trans-SUMOylation by U-p38α. The note with it: protein 2 construct coexpressed with U-p38α and EGFP-SUMO1 in HEK293.

Assay [4] has as its target T4, U-MK2 (Homo sapiens, UniProt P49137+P63279).
T4 construct: expressed in transfected cells; host or cells: HEK293
Briefly: Trans-SUMOylation by U-MK2. The settings on record: protein 2 construct coexpressed with U-MK2 and EGFP-SUMO1 in HEK293.

Assay [5] deals with T5, p53-U (Homo sapiens, UniProt P04637+P63279).
T5 construct: expressed in transfected cells; host or cells: HEK293
In words: Trans-SUMOylation by p53-U. The settings on record: western blot.

The target of assay [6] is T6, MK2-U (Homo sapiens, UniProt P49137+P63279).
T6 construct: expressed in transfected cells; host or cells: HEK293
Briefly: Trans-SUMOylation by MK2-U. The settings on record: protein 2 construct coexpressed with MK2-U and EGFP-SUMO1 in HEK293.

Assay [7] deals with T7, U-MK5 (Homo sapiens, UniProt P63279+Q8IW41).
T7 construct: expressed in transfected cells; host or cells: HEK293
Briefly: Trans-SUMOylation by U-MK5. Further details: key: (++), strong TransSUMOylation; (+), TransSUMOylation; (+/−) weak TransSUMOylation; (−) no detectable TransSUMOylation. The settings on record: protein 2 construct coexpressed with U-MK5 and EGFP-SUMO1 in HEK293; western blot; Table 2. The text has this: (§1) To identify new SUMOylation substrates and to study the function of SUMOylation the Ubc9/substrate dimerisation-dependent SUMOylation system (USDDS) was developed which consists of fusions of the SUMOylation substrate and of the SUMO-conjugating enzyme Ubc9 to the chemically activatable heterodimerisation domains FKBP and FRB, respectively, as shown in FIG. 2. When the substrate protein fused to FKBP is coexpressed with Ubc9-FRB, treatment of HEK293 cells with the rapamycin-related dimerizer AP21967 induces SUMOylation of the substrate protein fused to FKBP at its specific SUMOylation site. […] Dependent on an EcoRl site in the coding sequence, seven C-terminal amino acids of the human STAT1a in the STAT1-FKBP/FRB fusion proteins are missing. For the SUMOylation analysis HEK293 (human embryonic kidney cells) cells have been used. HEK293 cells were cultured in Dulbecco's modified Eagle's medium with high glucose, complemented with 10% fetal calf serum, 2 mM L-glutamine, 100 U/ml penicillin and […] streptomycin. We performed transfection of HEK293 cells using the polyethylenimine transfection reagent. HEK293 cells of a fresh confluent 10 cm plate were transferred on a 12-well plate. After 12-24 h incubation about 70% cell confluence is reached. For each well 45 μl of serum/antibiotic free DMEM medium is mixed with 750 ng of the transfection-purity expression vector DNA (all together 47 μl) and vortexed. Then, 3 μl of vortexed polyethylenimin stock solution (1 mg/ml) is added and the mixture is vortexed. After incubation at room temperature for 10 min 450 μl fresh DMEM with antibiotics is added to the mixture and vortexed. The medium on the cells was then completely removed and immediately, the 500 μl transfection mix was added carefully to each well. The 12 well plate was rocked to ensure a proper distribution of the DNA/transfection reagent complex. After an incubation of the cells for 24 h at a 37° C. in a humidified CO2-incubator (5%) the cells were lysed in 150 μl Laemmli (2×) gel loading buffer (160 mM Tris-HCL, pH 6.8, 4% (w/v) sodium dodecyl sulphate (SDS), 20% (v/v) glycerol, 0.5% β-mercaptoethanol (v/v), 0.008% (w/v) bromophenol blue) and incubated for 10 min at 95° C. For western blot analysis the proteins were separated by SDS-PAGE, blotted on a PVDF membrane and developed with specific primary antibodies (α-Ubc9 (H81, Santa Cruz), α-pY701-STAT1 (Tyr701, Cell Signaling), α-STAT1 (Cell Signaling), α-p53 (1C12, Cell Signaling), α-SUMO1 (Cell Signaling), a horseradish peroxidase (HRP)-conjugated secondary antibody (different companies), the ECL+ (Amersham) or Immobilon™ Western (Millipore) and the LAS-3000 imaging system (Fuji).
As shown above, the SUMOylation of a protein of interest can be induced by the heterodimerisation with a binding protein fused to Ubc9. To find out if Trans-SUMOylation is useful for the characterisation of common protein interactions, protein binding pairs well known from the literature or found in two hybrid screens. […] Therefore the protein pairs were coexpressed with EGFP-SUMO1 in HEK293 cells and after 24h the transfectants were lysed and the protein extracts were analyzed in western blots.
Protein-protein interactions described in the cited references were tested for Trans-SUMOylation. Each specific protein-protein interaction was tested by coexpression of different combinations of protein 1 fused to Ubc9 (U) with protein 2 mostly fused two a tag (HA, FLAG, Myc, GST, ST). (++), strong TransSUMOylation; (+), TransSUMOylation; (+/−) weak TransSUMOylation; (−) no detectable TransSUMOylation; (MEKK1ca) the activated MAP3 kinase MEKK1, that can enhance protein SUMOylation, was coexpressed.
Protein-protein interaction of each pair of protein 1/protein 2 was tested by coexpression of different combinations of a protein 1 fused to Ubc9 (U) with protein 2 mostly fused two a Tag (HA, FLAG, GST, ST). […]

Assay [8] addresses T8, U-CSNK2B (Homo sapiens, UniProt P63279+P67870).
T8 construct: expressed in transfected cells; host or cells: HEK293
Briefly: Trans-SUMOylation by U-CSNK2B. The note with it: protein 2 construct coexpressed with U-CSNK2B and EGFP-SUMO1 in HEK293; western blot; Table 2. On the set-up: key: (++), strong TransSUMOylation; (+), TransSUMOylation; (+/−) weak TransSUMOylation; (−) no detectable TransSUMOylation.
Excerpt: as §1, with “The 12 well plate was rocked to ensure a proper distribution of the DNA/transfection reagent complex. After an incubation of the cells for 24 h at a 37° C. in a humidified CO2-incubator (5%) the cells were lysed in 150 μl Laemmli (2×) gel loading buffer (160 mM Tris-HCL, pH 6.8, 4% (w/v) sodium dodecyl sulphate (SDS), 20% (v/v) glycerol, 0.5% β-mercaptoethanol (v/v), 0.008% (w/v) bromophenol blue) and incubated for 10 min at 95° C. For western blot analysis the proteins were separated by SDS-PAGE, blotted on a PVDF membrane and developed with specific primary antibodies (α-Ubc9 (H81, Santa Cruz), α-pY701-STAT1 (Tyr701, Cell Signaling), α-STAT1 (Cell Signaling), α-p53 (1C12, Cell Signaling), α-SUMO1 (Cell Signaling), a horseradish peroxidase (HRP)-conjugated secondary antibody (different companies), the ECL+ (Amersham) or Immobilon™ Western (Millipore) and the LAS-3000 imaging system (Fuji).” left out
As shown above, the SUMOylation of a protein of interest can be induced by the heterodimerisation with a binding protein fused to Ubc9. […] Therefore the protein pairs were coexpressed with EGFP-SUMO1 in HEK293 cells and after 24h the transfectants were lysed and the protein extracts were analyzed in western blots. […]

The mark [9] stands for this setting: protein 2 construct coexpressed with P53-U (p53-U) and EGFP-SUMO1 in HEK293, Table 1.

T4 sequence (P63279+P49137 fused): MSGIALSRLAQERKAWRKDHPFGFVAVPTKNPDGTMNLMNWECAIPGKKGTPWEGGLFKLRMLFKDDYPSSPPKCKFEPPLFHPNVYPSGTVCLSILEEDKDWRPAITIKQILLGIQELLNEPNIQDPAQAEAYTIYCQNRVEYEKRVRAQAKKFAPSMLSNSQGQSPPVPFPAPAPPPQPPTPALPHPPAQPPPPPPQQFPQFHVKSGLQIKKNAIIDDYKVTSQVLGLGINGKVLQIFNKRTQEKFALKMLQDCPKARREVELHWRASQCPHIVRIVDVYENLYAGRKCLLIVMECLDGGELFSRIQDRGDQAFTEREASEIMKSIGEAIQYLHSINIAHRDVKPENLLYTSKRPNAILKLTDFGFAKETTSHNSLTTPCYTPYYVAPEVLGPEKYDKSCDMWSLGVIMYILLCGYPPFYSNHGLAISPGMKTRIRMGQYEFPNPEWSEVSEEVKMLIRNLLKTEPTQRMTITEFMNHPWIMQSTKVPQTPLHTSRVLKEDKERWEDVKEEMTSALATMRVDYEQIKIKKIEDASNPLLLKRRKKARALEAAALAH
T1 sequence (P67870+P63279 fused): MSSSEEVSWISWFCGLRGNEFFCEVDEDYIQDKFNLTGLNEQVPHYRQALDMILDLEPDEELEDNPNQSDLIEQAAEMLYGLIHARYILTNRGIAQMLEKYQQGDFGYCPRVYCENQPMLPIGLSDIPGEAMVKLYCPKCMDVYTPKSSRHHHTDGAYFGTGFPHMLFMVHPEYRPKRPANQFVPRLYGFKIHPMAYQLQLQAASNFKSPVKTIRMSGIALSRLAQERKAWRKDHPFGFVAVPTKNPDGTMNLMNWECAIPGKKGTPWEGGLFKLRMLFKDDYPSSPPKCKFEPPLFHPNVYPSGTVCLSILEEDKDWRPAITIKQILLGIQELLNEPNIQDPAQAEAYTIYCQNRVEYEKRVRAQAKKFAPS
T3 sequence (P63279+Q16539 fused): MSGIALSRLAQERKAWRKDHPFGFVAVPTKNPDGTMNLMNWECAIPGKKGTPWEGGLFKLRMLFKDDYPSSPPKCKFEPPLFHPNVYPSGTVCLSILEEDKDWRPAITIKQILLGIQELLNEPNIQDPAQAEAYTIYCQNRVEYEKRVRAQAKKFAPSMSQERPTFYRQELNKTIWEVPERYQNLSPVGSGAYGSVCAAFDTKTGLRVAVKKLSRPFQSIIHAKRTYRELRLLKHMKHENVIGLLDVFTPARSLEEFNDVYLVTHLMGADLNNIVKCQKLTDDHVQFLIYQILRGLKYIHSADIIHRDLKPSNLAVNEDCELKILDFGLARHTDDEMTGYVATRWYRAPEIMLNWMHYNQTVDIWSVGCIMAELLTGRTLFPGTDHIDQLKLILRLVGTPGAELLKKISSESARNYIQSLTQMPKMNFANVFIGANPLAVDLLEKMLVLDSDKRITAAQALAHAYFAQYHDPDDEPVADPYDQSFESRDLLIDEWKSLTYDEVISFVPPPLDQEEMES
T6 sequence (P49137+P63279 fused): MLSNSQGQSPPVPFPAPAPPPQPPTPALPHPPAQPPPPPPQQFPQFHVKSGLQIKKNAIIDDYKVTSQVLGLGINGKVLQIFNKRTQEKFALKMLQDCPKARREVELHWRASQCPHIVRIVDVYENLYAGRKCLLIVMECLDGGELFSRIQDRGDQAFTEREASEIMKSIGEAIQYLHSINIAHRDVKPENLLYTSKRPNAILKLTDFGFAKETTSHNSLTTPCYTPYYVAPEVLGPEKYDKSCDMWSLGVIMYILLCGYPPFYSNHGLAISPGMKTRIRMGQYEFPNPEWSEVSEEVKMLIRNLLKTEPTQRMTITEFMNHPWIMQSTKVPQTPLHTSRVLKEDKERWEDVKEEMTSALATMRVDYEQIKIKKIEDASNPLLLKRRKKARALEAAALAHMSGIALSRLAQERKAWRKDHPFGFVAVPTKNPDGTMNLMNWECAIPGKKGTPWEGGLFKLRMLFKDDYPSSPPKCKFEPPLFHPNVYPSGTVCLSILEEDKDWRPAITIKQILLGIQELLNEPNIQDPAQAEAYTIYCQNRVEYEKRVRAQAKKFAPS
T2 sequence (P05412+P63279 fused): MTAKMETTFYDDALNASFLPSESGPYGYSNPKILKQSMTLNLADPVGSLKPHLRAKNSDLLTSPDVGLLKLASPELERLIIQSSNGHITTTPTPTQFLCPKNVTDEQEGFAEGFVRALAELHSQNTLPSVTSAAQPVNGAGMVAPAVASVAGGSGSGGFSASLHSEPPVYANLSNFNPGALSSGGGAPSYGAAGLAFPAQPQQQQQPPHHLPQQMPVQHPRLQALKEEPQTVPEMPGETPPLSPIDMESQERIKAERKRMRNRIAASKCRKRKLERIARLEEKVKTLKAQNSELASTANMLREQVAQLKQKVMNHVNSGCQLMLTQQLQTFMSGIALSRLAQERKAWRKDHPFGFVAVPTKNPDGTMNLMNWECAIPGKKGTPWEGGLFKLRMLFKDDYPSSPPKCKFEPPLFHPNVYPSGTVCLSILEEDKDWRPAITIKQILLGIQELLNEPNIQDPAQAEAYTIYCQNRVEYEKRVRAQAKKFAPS
T7 sequence (P63279+Q8IW41 fused): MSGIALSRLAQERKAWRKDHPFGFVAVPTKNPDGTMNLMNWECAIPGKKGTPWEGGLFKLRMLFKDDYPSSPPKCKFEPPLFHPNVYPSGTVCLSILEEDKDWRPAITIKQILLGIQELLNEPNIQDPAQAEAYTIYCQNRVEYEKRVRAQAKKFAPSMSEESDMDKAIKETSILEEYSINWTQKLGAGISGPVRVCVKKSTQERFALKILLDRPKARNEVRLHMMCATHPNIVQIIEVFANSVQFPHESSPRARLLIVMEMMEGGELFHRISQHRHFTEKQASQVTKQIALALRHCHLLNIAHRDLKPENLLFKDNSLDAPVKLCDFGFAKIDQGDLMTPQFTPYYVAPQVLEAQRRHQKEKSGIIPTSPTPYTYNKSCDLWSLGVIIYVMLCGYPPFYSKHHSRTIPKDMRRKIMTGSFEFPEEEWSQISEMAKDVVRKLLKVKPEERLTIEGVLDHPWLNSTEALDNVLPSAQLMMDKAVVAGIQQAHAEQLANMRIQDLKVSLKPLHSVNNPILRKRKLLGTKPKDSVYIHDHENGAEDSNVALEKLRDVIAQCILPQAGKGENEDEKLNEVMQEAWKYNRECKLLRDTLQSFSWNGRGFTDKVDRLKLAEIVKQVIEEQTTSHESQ
T8 sequence (P63279+P67870 fused): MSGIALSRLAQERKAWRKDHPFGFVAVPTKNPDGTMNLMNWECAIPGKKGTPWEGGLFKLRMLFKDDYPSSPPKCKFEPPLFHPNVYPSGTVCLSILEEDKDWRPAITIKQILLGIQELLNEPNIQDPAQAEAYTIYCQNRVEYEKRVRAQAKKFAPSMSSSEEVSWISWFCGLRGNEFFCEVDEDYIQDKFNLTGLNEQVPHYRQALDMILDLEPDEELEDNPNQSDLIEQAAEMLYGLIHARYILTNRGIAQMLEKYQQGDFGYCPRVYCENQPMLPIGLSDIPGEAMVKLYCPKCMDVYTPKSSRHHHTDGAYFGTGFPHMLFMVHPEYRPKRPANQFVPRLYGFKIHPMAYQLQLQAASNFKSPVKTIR

HA-CSNK2B: CSNK2B fused to HA tag: the Trans-SUMOylation entry in assay [1] (MEKK1ca coexpressed) is recorded as “+ (MEKK1ca)”.

Take HA-ERK2: ERK2 fused to HA tag: the Trans-SUMOylation result in assay [2] (Table 2) was “−”; in assay [3] (western blot, Table 1) it was “+”; in assay [4] (western blot, Table 1), “+”; in assay [5] (setting [9]), “+”.

As for HA-HSP27: HSP27 fused to HA tag, the Trans-SUMOylation result in assay [6] (western blot, Table 1) was “−”; in assay [4] (western blot, Table 1) it was “−”.

Take HA-JNK2: JNK2 fused to HA tag: the Trans-SUMOylation entry is recorded as “−” in assay [2] (Table 1); “−” in assay [3] (western blot, Table 2); “−” in assay [4] (western blot, Table 2); “−” in assay [5] (setting [9]); “−” in assay [7].

On to HA-JUN: JUN fused to HA tag, for which the Trans-SUMOylation entry is on record as “+” in assay [2] (Table 1) and “(+/−)” in assay [6] (western blot, Table 2).

In the case of Myc-MK2: MK2 fused to Myc tag, the Trans-SUMOylation result in assay [2] (Table 2) is listed as “−”; in assay [6] (MEKK1 coexpressed, Table 2) it was “+ (MEKK1)”; in assay [6] (western blot, Table 2), “+”; in assay [3] (MEKK1ca (Table 1B: MEKK1) coexpressed, Table 1) it was “++ (MEKK1ca)”; in assay [3] (western blot, Table 1), “+”; in assay [4] (MEKK1 coexpressed, Table 2) it was “+ (MEKK1)”. The Trans-SUMOylation entry in assay [4] (western blot, Table 2) is “−”; in assay [5] (protein 2 construct coexpressed with p53-U and EGFP-SUMO1 in HEK293, Table 2) it was “−”; in assay [8] it was “(+/−)”; in assay [7], “+”.

With “p53K386R-ST(377-389): p53K386R fused to SUMOylation site tag 377-389”, the Trans-SUMOylation result in assay [4] (western blot, Table 2) was “−”; in assay [1] (western blot), “+”.

Consider “p53K386R-ST(377-391): p53K386R fused to SUMOylation site tag 377-391”, for which the Trans-SUMOylation entry in assay [4] (western blot, Table 2) is recorded as “−”; in assay [1] (western blot), “+”.
